For this assay, the target named is T1, SOX2 peptide on HLA-A*02:01 (human).
T1 peptide: YLPGAEVPEPA
Put plainly: multimer staining. Here is the method: Methods: TCR expression vectors were sequenced after Gibson assembly to confirm successful insertion of the TCR expression cassettes into the pRRLSIN vector. Lentiviral particles were generated using the 293T/17 packaging cell line and the Effectene kit (Qiagen). CD8⁺ T cells were isolated from a healthy donor (18648) using negative magnetic separation (Easy Sep Kit, […] Technologies), stimulated for 4 hours with anti-CD3/CD28 beads (Dynabeads), and transduced with SOX2-TCR-encoding lentiviral particles collected from 293T/17 cells. Transduced CD8⁺ T cells were assessed for tetramer staining on day 5 post transduction. SOX2-TCR⁺ CD8⁺ T cells are sorted for rapid expansion, and assessed for response to different peptide concentrations, and target killing.

B1: SOX2 TCR #05 (TCR, V domains shown)
Valpha: AQKITQTQPGMFVQEKEAVTLDCTYDTSDPSYGLFWYKQPSSGEMIFLIYQGSYDQQNATEGRYSLNFQKARKSANLVISASQLGDSAMYFCAMREGMGFQKLVFGTGTRLLVSP
Vbeta: DVKVTQSSRYLVKRTGEKVFLECVQDMDHENMFWYRQDPGLGLRLIYFSYDVKMKEKGDIPEGYSVSREKKERFSLILESASTNQTSMYLCASRPEMGGRGNQPQHFGDGTRLSIL
Consider B1, for which the binding result is listed as “recognises”.

B2: SOX2 TCR #10 (TCR, V domains shown)
Valpha: GEDVEQSLFLSVREGDSSVINCTYTDSSSTYLYWYKQEPGAGLQLLTYIFSNMDMKQDQRLTVLLNKKDKHLSLRIADTQTGDSAIYFCAGPLGGSQGNLIFGKGTKLSVKP
Vbeta: EADIYQTPRYLVIGTGKKITLECSQTMGHDKMYWYQQDPGMELHLIHYSYGVNSTEKGDLSSESTVSRIRTEHFPLTLESARPSHTSQYLCASSRGPEAFFGQGTRLTVV
With B2, the binding result is reported as “recognises”.
